Assay results: the supplement of paper PMC7877785
± gives the uncertainty stated by the source.

Experiment: self-splicing fitness, log relative to wild type (ln ratio); higher = more splicing; Tetrahymena group I intron in knt gene, E. coli kanamycin selection, DiMSum; sequences stand for … in CUCUCU…GGAGGGAAAAGUUAUCAGGCAUGCACCUGGUAGCUAGUCUUUAAACCAAUAGAUUGCAUCGGUUUAAAAGGCAAGACCGUCAAAUUGCGGGAAAGGGGUCAACAGCCGUUCAGUACCAAGUCUCAGGGGAAACUUUGAGAUGGCCUUGCAAAGGGUAUGGUAAUAAGCUGACGGACAUGGUCCUAACCACGCAGCCAAGUCCUAAGUCAACAGAUCUUCUGUUGAUAUGGAUGCAGUUCACAGACUAAAUGUCGGUCGGGGAAGAUGUAUUCUUCUCAUAAGAUAUAGUCGGACCUCUCCUUAAUGGGAGCUAGCGGAUGAAGUGAUGCAACACUGGAGCCGCUGGGAACUAAUUUGUAUGCGAAAGUAUAUUGAUUAGUUUUGGAGUACUCGUGGUCG
Procedure, shortened: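 Colonies from six replicate transformations of E. coli BL21(DE3) were pooled and amplicon-sequenced on an Illumina HiSeq 2500. The library placed an intron with all eight P1ex-region nucleotides randomised inside the knt kanamycin-resistance gene on pET-22b(+), and cells grew overnight at 37°C or 30°C on LB agar with or without 25 μg/mL kanamycin (plus 100 μg/mL carbenicillin, 50 μM IPTG, 0.2% rhamnose). Fitness is the DiMSum error-weighted combination of wild-type-normalised replicate fold changes, kanamycin versus none.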

Row | Sequence | self-splicing fitness (ln) (30 °C) | self-splicing fitness (ln) (37 °C)
1 | GGACAGCAAUAUUACGGGUA | -2.33 ± 0.11 | -1.67 ± 0.093
2 | GGCUAGCAAUAUUACGCUAA | -0.801 ± 0.2 | -0.34 ± 0.15
3 | AAUCAGCAAUAUUACGAUUA | -0.229 ± 0.088 | -0.426 ± 0.088
4 | UAGCAGCAAUAUUACGCUGC | -2.86 ± 0.35 | -2.2 ± 0.32
5 | GCACAGCAAUAUUACGUCGC | -3.17 ± 0.13 | -1.67 ± 0.12
6 | CGGGAGCAAUAUUACGUGCA | -3.02 ± 0.27 | -2.29 ± 0.22
7 | GCCGAGCAAUAUUACGUAAG | -2.26 ± 0.13 | -1.09 ± 0.12
8 | AAUAAGCAAUAUUACGGUCA | -0.268 ± 0.084 | 0.155 ± 0.12
9 | CCUAAGCAAUAUUACGGCCU | -1.9 ± 0.16 | -1.84 ± 0.37
10 | CGACAGCAAUAUUACGUGCG | -4.12 ± 0.17 | -2.5 ± 0.19
11 | AUUCAGCAAUAUUACGGUGG | -3.09 ± 0.15 | -1.58 ± 0.14
12 | AUGGAGCAAUAUUACGCCAG | -2.26 ± 0.35 | 
13 | CCAUAGCAAUAUUACGUCAU | -4.08 ± 0.31 | -2.69 ± 0.17
14 | UGAAAGCAAUAUUACGGCAG | -0.742 ± 0.094 | -0.105 ± 0.11
15 | CCUUAGCAAUAUUACGCCUU | -3.52 ± 0.32 | -2.57 ± 0.24
16 | UUACAGCAAUAUUACGCUCA | -0.512 ± 0.12 | -0.224 ± 0.13
17 | UUAAAGCAAUAUUACGCUAG | -0.313 ± 0.092 | 0.141 ± 0.11
18 | UACCAGCAAUAUUACGGCUA | 0.185 ± 0.066 | 0.554 ± 0.089
19 | CAUCAGCAAUAUUACGCUUG | -2.08 ± 0.084 | -1.03 ± 0.098
20 | UAAGAGCAAUAUUACGAUCU | -2.51 ± 0.24 | -2.86 ± 0.36
21 | CGUUAGCAAUAUUACGUUAU | -2.76 ± 0.34 | -2.18 ± 0.37
22 | UAUUAGCAAUAUUACGGGGA | -2.39 ± 0.22 | -0.989 ± 0.18

Row | Sequence | self-splicing fitness (ln) (30 °C) | self-splicing fitness (ln) (37 °C)
23 | GCCGAGCAAUAUUACGUUUU | -3.18 ± 0.18 | -1.75 ± 0.14
24 | UUCAAGCAAUAUUACGUAGG | -1.53 ± 0.08 | -0.995 ± 0.13
25 | GAAUAGCAAUAUUACGUUUC | -3.37 ± 0.19 | -2.4 ± 0.29
26 | ACCGAGCAAUAUUACGUUGU | -3.67 ± 0.17 | -1.5 ± 0.12
27 | GAUCAGCAAUAUUACGGUCC | -3.7 ± 0.33 | 
28 | CAGCAGCAAUAUUACGAAUG | -1.69 ± 0.061 | 0.012 ± 0.083
29 | GUACAGCAAUAUUACGUUCU | -1.98 ± 0.1 | -0.102 ± 0.1
30 | CUCUAGCAAUAUUACGUCUA | -2.31 ± 0.25 | -2.88 ± 0.24
31 | ACGUAGCAAUAUUACGUGGG | -3.6 ± 0.16 | -3.07 ± 0.18
32 | AUAAAGCAAUAUUACGUGUA | -1.55 ± 0.069 | -0.325 ± 0.089
33 | ACCAAGCAAUAUUACGGUUC | -3.36 ± 0.15 | -3.46 ± 0.25
34 | UUACAGCAAUAUUACGAUAU | -1.83 ± 0.11 | -0.951 ± 0.14
35 | CCGUAGCAAUAUUACGGCAU | -3.15 ± 0.23 | -2.85 ± 0.25
36 | ACCCAGCAAUAUUACGCCCC | -1.3 ± 0.12 | -0.142 ± 0.14
37 | GCAAAGCAAUAUUACGGGGC | -4.05 ± 0.34 | -3.13 ± 0.31
38 | CUGAAGCAAUAUUACGAAGG | -0.457 ± 0.093 | -1.38 ± 0.14
39 | CUAGAGCAAUAUUACGCUGA | -3.92 ± 0.23 | -2.25 ± 0.23
40 | UAAAAGCAAUAUUACGGGGG | -2.62 ± 0.19 | -2.43 ± 0.24
41 | AGCUAGCAAUAUUACGGAGC | -2.44 ± 0.17 | -1.46 ± 0.23
42 | CCGGAGCAAUAUUACGAUUC |  | -2.85 ± 0.38
43 | AACGAGCAAUAUUACGUCAA | -3.08 ± 0.23 | -3.35 ± 0.3
